Sequences and labels used below:
B1: VSDHLQAGMLGQY (peptide)
peptide: VSDHLQAGMLGQY
B2: KAFQELGVRY (peptide)
peptide: KAFQELGVRY
B3: IMLSVDQHLY (peptide)
peptide: IMLSVDQHLY
B4: KTLQKPVLPLY (peptide)
peptide: KTLQKPVLPLY
B5: FSENLIYTYI (peptide)
peptide: FSENLIYTYI
B6: PSSMPECLSY (peptide)
peptide: PSSMPECLSY
B7: MMEMEGMY (peptide)
peptide: MMEMEGMY
B8: EDLLEVLDMY (peptide)
peptide: EDLLEVLDMY
B9: QALQDKLQTFY (peptide)
peptide: QALQDKLQTFY
B10: LQKPVLPLY (peptide)
peptide: LQKPVLPLY
B11: SMDPVTGYQY (peptide)
peptide: SMDPVTGYQY
B12: PPEANSLQGALY (peptide)
peptide: PPEANSLQGALY
B13: VLKIELETY (peptide)
peptide: VLKIELETY
B14: AVNALQSVY (peptide)
peptide: AVNALQSVY
B15: TLEDLDNLYNY (peptide)
peptide: TLEDLDNLYNY
B16: FTDPHIITF (peptide)
peptide: FTDPHIITF
B17: NTMDAVPRIDHY (peptide)
peptide: NTMDAVPRIDHY
B18: PANYLGKMTY (peptide)
peptide: PANYLGKMTY
B19: TVTDGTHTDFY (peptide)
peptide: TVTDGTHTDFY
B20: RLDEAMISY (peptide)
peptide: RLDEAMISY
B21: GQRLDEAMISY (peptide)
peptide: GQRLDEAMISY
B22: KFDVINHYF (peptide)
peptide: KFDVINHYF
B23: KSFETTVRY (peptide)
peptide: KSFETTVRY
B24: GTDKQNSTLRY (peptide)
peptide: GTDKQNSTLRY
B25: ESQTCASDY (peptide)
peptide: ESQTCASDY
B26: VSINPNSGDIY (peptide)
peptide: VSINPNSGDIY
B27: ESMDIFPLGW (peptide)
peptide: ESMDIFPLGW
B28: STSRLTLFS (peptide)
peptide: STSRLTLFS
B29: YMTSMALNY (peptide)
peptide: YMTSMALNY
B30: ELAAGQVVY (peptide)
peptide: ELAAGQVVY
B31: VLDFAPPGASAY (peptide)
peptide: VLDFAPPGASAY
B32: EVDSVALSL (peptide)
peptide: EVDSVALSL
B33: DTDDRELRY (peptide)
peptide: DTDDRELRY
B34: SVDSNLVAY (peptide)
peptide: SVDSNLVAY
B35: NTDSMTLNNTAY (peptide)
peptide: NTDSMTLNNTAY
B36: TSDVTGSLTY (peptide)
peptide: TSDVTGSLTY
B37: YSPDSFNVSW (peptide)
peptide: YSPDSFNVSW
B38: LSDPQAELQFY (peptide)
peptide: LSDPQAELQFY
B39: TEEKFVSY (peptide)
peptide: TEEKFVSY
B40: GQFTGTAGACRY (peptide)
peptide: GQFTGTAGACRY
B41: GFGGLSSQGVYY (peptide)
peptide: GFGGLSSQGVYY
B42: SADHPGLTF (peptide)
peptide: SADHPGLTF
B43: VTDGINPLI (peptide)
peptide: VTDGINPLI
B44: LLDEDNNIKL (peptide)
peptide: LLDEDNNIKL
B45: FSELNPLALY (peptide)
peptide: FSELNPLALY
B46: EGELSEGEHWY (peptide)
peptide: EGELSEGEHWY
B47: YTSHEDIGY (peptide)
peptide: YTSHEDIGY
B48: YADLLIYTY (peptide)
peptide: YADLLIYTY
B49: YTCEECGQAF (peptide)
peptide: YTCEECGQAF
B50: VTTDKPRAY (peptide)
peptide: VTTDKPRAY
B51: VAGLEAGVLY (peptide)
peptide: VAGLEAGVLY
B52: FGTTPAAEYF (peptide)
peptide: FGTTPAAEYF
B53: DSTDGCLLSF (peptide)
peptide: DSTDGCLLSF
B54: QTYMDGLLHY (peptide)
peptide: QTYMDGLLHY
B55: HMLAAMAY (peptide)
peptide: HMLAAMAY
B56: YLYQAPGSLALY (peptide)
peptide: YLYQAPGSLALY
B57: PSSMPECLSYY (peptide)
peptide: PSSMPECLSYY
B58: EVDRNLIQY (peptide)
peptide: EVDRNLIQY
B59: VTDGTHTDFY (peptide)
peptide: VTDGTHTDFY
B60: SSWSAGENDSY (peptide)
peptide: SSWSAGENDSY
B61: ATNIQLNIDTY (peptide)
peptide: ATNIQLNIDTY
B62: FTESNQYNIY (peptide)
peptide: FTESNQYNIY
B63: YFGNYFTYY (peptide)
peptide: YFGNYFTYY
B64: RTGIFPYRF (peptide)
peptide: RTGIFPYRF
B65: FYLSTPENYHY (peptide)
peptide: FYLSTPENYHY
B66: DGIADASNLSYY (peptide)
peptide: DGIADASNLSYY

For this assay, the target named is T1, HLA-A*01:01 (human).
T1 construct: MHC class I monomer first loaded with a UV-sensitive peptide (not identified) that is cleaved by UV irradiation and exchanged for the tested peptide; captured on streptavidin plates, detected with anti-β2m; also called peptide-receptive MHC molecules
As to the kind of experiment: UV-ligand exchange, anti-b2m ELISA. The gist of the method: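 Peptide–MHC complexes made by UV-ligand exchange of a UV-cleavable peptide; exchange yield measured by ELISA on streptavidin-coated plates, samples diluted 100-fold, 1 h 37 °C. Detection with 2 ug/ml HRP anti-β2m, TMB, A450; refolded HLA-A*02:01/MLA-001 monomer standards 15-500 ng/ml.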
Background: ELISA stands for enzyme-linked immunosorbent assay.
The molecule B1 returned a peptide exchange yield of 50 to 75%.

For the molecule B2, the peptide exchange yield lay in the range of 20 to 50%.

In the case of B3, the peptide exchange yield was 50 to 75%.

B4 returned a peptide exchange yield of 20 to 50%.

As for B5, the peptide exchange yield was 20 to 50%.

For the molecule B6, the peptide exchange yield was above 75%.

With B7, the peptide exchange yield fell in the range of 50 to 75%.

As to B8, the peptide exchange yield was in the range of 20 to 50%.

Turning to B9, the peptide exchange yield fell in the range of 20 to 50%.

As to B10, the peptide exchange yield was 20 to 50%.

B11 yielded a peptide exchange yield of 50 to 75%.

Consider B12, for which the peptide exchange yield lay within 20 to 50%.

Turning to B13, the peptide exchange yield fell in the range of 50 to 75%.

For B14, the peptide exchange yield was 20 to 50%.

Take B15: the peptide exchange yield lay in the range of 50 to 75%.

Take B16: the peptide exchange yield is above 75%.

As to B17, the peptide exchange yield is above 75%.

Molecule B18 registered a peptide exchange yield of 50 to 75%.

B19 yielded a peptide exchange yield of 20 to 50%.

Molecule B20 came in with a peptide exchange yield of 50 to 75%.

In turn, B21 registered a peptide exchange yield of 50 to 75%.

Molecule B22 gave a peptide exchange yield of 20 to 50%.

For B23, the peptide exchange yield was in the range of 20 to 50%.

In the case of B24, the peptide exchange yield lay in the range of 50 to 75%.

For B25, the peptide exchange yield lay within 50 to 75%.

For B26, the peptide exchange yield is 50 to 75%.

For B27, the peptide exchange yield was 20 to 50%.

Regarding B28, the peptide exchange yield lay within 20 to 50%.

As to B29, the peptide exchange yield lay in the range of 50 to 75%.

The molecule B30 returned a peptide exchange yield of 10 to 20%.

In the case of B31, the peptide exchange yield was above 75%.

For B32, the peptide exchange yield lay within 20 to 50%.

B33: the peptide exchange yield lay within 50 to 75%.

In the case of B34, the peptide exchange yield fell in the range of 50 to 75%.

In turn, B35 came in with a peptide exchange yield above 75%.

Consider B36, for which the peptide exchange yield was above 75%.

B37 registered a peptide exchange yield of 20 to 50%.

B38 returned a peptide exchange yield above 75%.

In the case of B39, the peptide exchange yield lay within 10 to 20%.

Turning to B40, the peptide exchange yield is 20 to 50%.

Molecule B41 had a peptide exchange yield of 50 to 75%.

B42 showed a peptide exchange yield of 20 to 50%.

For the molecule B43, the peptide exchange yield is 20 to 50%.

B44 showed a peptide exchange yield of 20 to 50%.

In the case of B45, the peptide exchange yield was above 75%.

The molecule B46 gave a peptide exchange yield of 50 to 75%.

In turn, B47 registered a peptide exchange yield above 75%.

As to B48, the peptide exchange yield was above 75%.

B49 yielded a peptide exchange yield of 20 to 50%.

With B50, the peptide exchange yield was in the range of 20 to 50%.

B51 yielded a peptide exchange yield of 20 to 50%.

Regarding B52, the peptide exchange yield lay in the range of 20 to 50%.

B53 showed a peptide exchange yield of 20 to 50%.

The molecule B54 came in with a peptide exchange yield above 75%.

As to B55, the peptide exchange yield is 20 to 50%.

B56 showed a peptide exchange yield above 75%.

The molecule B57 returned a peptide exchange yield of 50 to 75%.

Regarding B58, the peptide exchange yield was in the range of 50 to 75%.

Take B59: the peptide exchange yield lay within 50 to 75%.

B60 had a peptide exchange yield of 50 to 75%.

Turning to B61, the peptide exchange yield was 50 to 75%.

Take B62: the peptide exchange yield was above 75%.

With B63, the peptide exchange yield lay in the range of 10 to 20%.

Consider B64, for which the peptide exchange yield is 20 to 50%.

B65: the peptide exchange yield fell in the range of 50 to 75%.

B66 gave a peptide exchange yield of 20 to 50%.
